Assay results from patent US20220251241A1 (NGM BIOPHARMACEUTICALS, published 2022).
Blank lines part the entries; values can stand above or below the binder they belong to.

How the values were obtained:
[1] = biological target: T1, HTRA1 (construct not given) (Homo sapiens (Human), UniProt Q92743 23-480, limits assumed); assay: protease inhibition assay, H2-Opt peptide substrate; apparent Ki (Ki^app)
[2] = biological target: endogenous HTRA1 protein in the serum of the animals dosed with hz24F7.v2 (PK serum samples) (cynomolgus monkey); assay: cell-based or functional assay
[3] = biological target: T1, HTRA1 (construct not stated in the …); assay: cell-based or functional assay
[4] = biological target: T1, HTRA1 (construct not stated in the …); assay: cell-based or functional assay; remark: listed apart in the source
[5] = biological target: T1, HTRA1 (construct not stated in the …); assay: SPR (Biacore), 25° C.; antibody captured; sample stored 8 weeks at pH 7.4, 40° C.
Experimental: (§1) The binding affinities of anti-HTRA1 antibodies to human HTRA1 were measured using a Biacore system (GE Healthcare Life Sciences). Briefly, anti-Fc antibody (Sigma-Aldrich) was immobilized on all four flow cells of a CMS chip using amine coupling reagents (GE Healthcare LifeSciences). Antibodies were captured on flow cells 2, 3, and 4 using flow cell 1 as a reference. […] Kinetic data were collected over time and fit using the simultaneous global fit equation to yield affinity constants (KD values) for each antibody. […]

[6] = biological target: T1, HTRA1 (construct not stated in the …); assay: SPR (Biacore), 25° C.; antibody captured; sample stored 0 weeks at pH 7.4, 40° C.
Experimental: as §1

[7] = biological target: T2, HTRA1-catalytic domain (HTRA1-CAT; amino acids 156-364 of SEQ ID NO:1) (human, UniProt Q92743 156-364); assay: SPR (Biacore), 37° C.; kon at the limit of detection
T2 construct: Wild-type catalytic domain construct; also called HTRA1 catalytic domain protein
T2 sequence (Q92743 156-364): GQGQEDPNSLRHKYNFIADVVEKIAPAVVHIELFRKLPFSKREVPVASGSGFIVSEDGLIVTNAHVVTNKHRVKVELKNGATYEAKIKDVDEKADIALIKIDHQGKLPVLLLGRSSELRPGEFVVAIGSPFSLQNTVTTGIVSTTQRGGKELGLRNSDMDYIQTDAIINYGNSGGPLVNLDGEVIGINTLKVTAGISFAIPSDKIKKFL
Experimental: (§2) The binding affinities of anti-HTRA1 antibodies to human HTRA1 were measured using a Biacore system (GE Healthcare Life Sciences). Briefly, anti-Fc antibody (Sigma-Aldrich) was immobilized on all four flow cells of a CMS chip using amine coupling reagents (GE Healthcare LifeSciences). Antibodies were captured on flow cells 2, 3, and 4 using flow cell 1 as a reference. Concentrations ranging from 3.3-10 nM of human delta N-HTRA1 were injected at a flow rate of 50 μL/min at 37° C. Kinetic data were collected over time and fit using the simultaneous global fit equation to yield affinity constants (KD values) for each antibody.
(§3) The binding affinity of hz24F7.v2 to a HTRA1 full length protein (HTRA1-FL) or a HTRA1-CAT was determined using a Biacore system as described herein and compared with the binding affinity of the parental 24F7 antibody (see Table 9).

[8] = biological target: T1, HTRA1 (construct not stated in the …); assay: SPR (Biacore), 25° C.; antibody captured; sample stored 4 weeks at pH 7.4, 40° C.
Experimental: as §1

[9] = biological target: T2, HTRA1-catalytic domain (HTRA1-CAT; …); assay: SPR (Biacore), 25° C.; kon at the limit of detection
[10] = biological target: T2, HTRA1-catalytic domain (HTRA1-CAT; …); assay: SPR (Biacore), 25° C.; * = Limit of Detection; 25° C.; HTRA1-CAT; kon at limit of detection
[11] = biological target: T2, HTRA1-catalytic domain (HTRA1-CAT; …); assay: SPR (Biacore), 25° C.
[12] = biological target: T3, human HTRA1 full length protein (HTRA1-FL) (human, UniProt Q92743 23-480); assay: SPR (Biacore), 25° C.
T3 construct: also called human HTRA1-FL
T3 sequence (Q92743 23-480): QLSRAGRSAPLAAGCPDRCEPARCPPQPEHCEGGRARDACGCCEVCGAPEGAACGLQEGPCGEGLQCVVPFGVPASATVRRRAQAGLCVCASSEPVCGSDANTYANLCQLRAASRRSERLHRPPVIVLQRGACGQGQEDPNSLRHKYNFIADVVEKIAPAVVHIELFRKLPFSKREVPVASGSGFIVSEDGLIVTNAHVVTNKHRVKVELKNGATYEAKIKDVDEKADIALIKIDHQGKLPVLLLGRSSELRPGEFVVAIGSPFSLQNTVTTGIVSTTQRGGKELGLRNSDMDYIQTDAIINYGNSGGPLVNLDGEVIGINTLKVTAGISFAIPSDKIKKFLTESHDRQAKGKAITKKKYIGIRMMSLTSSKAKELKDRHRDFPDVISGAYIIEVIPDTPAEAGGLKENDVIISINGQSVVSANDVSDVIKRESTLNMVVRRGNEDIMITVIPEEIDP

[13] = biological target: T1, HTRA1 (construct not stated in the …); assay: SPR (Biacore), 25° C.; antibody captured; sample stored 2 weeks at pH 7.4, 40° C.
Experimental: as §1

[14] = biological target: T1, HTRA1 (construct not stated in the …); assay: cell-based or functional assay; remark: listed apart in the source
[15] = biological target: T1, HTRA1 (construct not stated in the …); assay: protease inhibition assay, casein substrate; apparent Ki (Ki^app)
Excerpt: (§4) Two enzymatic assays were used to characterize HTRA1 protease activity and evaluate inhibitory activity of anti-HTRA1 antibodies. EnzChek® Protease Assay Kit (ThermoFisher Scientific) was used following the manufacturer's instructions. This kit contains casein protein that is heavily labeled with the pH-insensitive green-fluorescent BOPIPY® FL dye that results in almost total quenching of the conjugate's fluorescence. Protease-catalyzed hydrolysis of labeled casein releases highly fluorescent BODIPY® FL dye-labeled peptides. The concomitant increase in fluorescence is proportional to protease activity.
To confirm that the humanized version of antibody 24F7 retained the ability to inhibit H IRA1 protease activity, hz24F7.v2 was assessed in casein and H2-Opt assays as described herein.

[16] = biological target: T2, HTRA1-catalytic domain (HTRA1-CAT; …); assay: SPR (Biacore), 37° C.; * = Limit of Detection
Experimental: as §2, §3

[17] = biological target: T1, HTRA1 (construct not stated in the …); assay: SPR (Biacore); affinity at baseline
[18] = biological target: T1, HTRA1 (construct not stated in the …); assay: cell-based or functional assay; remark: listed apart in the source
[19] = biological target: T2, HTRA1-catalytic domain (HTRA1-CAT; …); assay: SPR (Biacore), 37° C.
Experimental: as §2, §3

[20] = biological target: T3, human HTRA1 full length protein …; assay: SPR (Biacore), 37° C.
Experimental: as §2, §3

[21] = biological target: endogenously expressed HTRA1 secreted by the human melanoma cell line C32 (human, UniProt Q92743 23-480); assay: cell-based or functional assay
Chain of endogenously expressed HTRA1 secreted by the human melanoma cell line C32 (Q92743 23-480): as above

[22] = biological target: T1, HTRA1 (construct not stated in the …); assay: cell-based or functional assay; remark: listed apart in the source
[23] = biological target: human delta N-HTRA1 (amino acids 156-480 of SEQ ID NO:1) (human, UniProt Q92743 156-480); assay: SPR (Biacore); antibody captured by anti-Fc, human delta N-HTRA1 injected; temperature of this table not stated
Chain of human delta N-HTRA1 (amino acids 156-480 of SEQ ID NO:1) (Q92743 156-480, stated change not applied): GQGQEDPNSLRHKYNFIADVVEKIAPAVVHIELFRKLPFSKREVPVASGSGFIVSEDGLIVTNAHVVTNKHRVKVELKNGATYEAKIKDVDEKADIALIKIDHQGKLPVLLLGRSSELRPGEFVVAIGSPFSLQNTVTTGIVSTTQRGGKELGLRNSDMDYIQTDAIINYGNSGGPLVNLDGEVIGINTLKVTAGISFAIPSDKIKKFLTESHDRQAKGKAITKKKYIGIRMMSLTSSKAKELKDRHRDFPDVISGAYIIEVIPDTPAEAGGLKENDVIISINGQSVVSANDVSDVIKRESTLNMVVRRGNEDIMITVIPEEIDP
Experimental: as §2

[24] = biological target: T1, HTRA1 (construct not stated in the …); assay: cell-based or functional assay; remark: listed apart in the source
[25] = biological target: T4, wild-type HTRA1 peptide RKLPFSKREVPV (R190-V201 of SEQ ID NO:1) (human); assay: ELISA
T4 construct: also called Wild type peptide (R190 - V201)
T4 peptide: RKLPFSKREVPV
Experimental: (§5) A series of mutated HTRA1-catalytic domain (HTRA1-CAT; amino acids 156-364 of SEQ ID NO:1) proteins containing single amino acid substitutions were generated by standard methods (e.g., site directed mutagenesis). Antibody 24F7 was tested by ELISA for binding to these mutant HTRA1-CAT proteins as well as a wild-type HTRA1 peptide consisting of amino acids […] (SEQ ID NO:92; R190—V201 of SEQ ID NO:1).

[26] = biological target: HTRA1-CAT F194A mutant (human, UniProt Q92743 156-364); assay: ELISA
Chain of HTRA1-CAT F194A mutant (Q92743 156-364 F194A): as the sequence (Q92743 156-364) above, with F39A counted along it
Experimental: as §5

[27] = biological target: HTRA1-CAT P193A mutant (human, UniProt Q92743 156-364); assay: ELISA
Chain of HTRA1-CAT P193A mutant (Q92743 156-364 P193A): as the sequence (Q92743 156-364) above, with P38A counted along it
Experimental: as §5

[28] = biological target: HTRA1-CAT R190A mutant (human, UniProt Q92743 156-364); assay: ELISA
Chain of HTRA1-CAT R190A mutant (Q92743 156-364 R190A): as the sequence (Q92743 156-364) above, with R35A counted along it
Experimental: as §5

[29] = biological target: HTRA1-CAT R197A mutant (human, UniProt Q92743 156-364); assay: ELISA
Chain of HTRA1-CAT R197A mutant (Q92743 156-364 R197A): as the sequence (Q92743 156-364) above, with R42A counted along it
Experimental: as §5

[30] = biological target: T1, HTRA1 (construct not stated in the …); assay: SPR (Biacore), 37° C.
Experimental: as §2
(§6) SPR assays were set up using a Biacore system as described herein.

[31] = biological target: T1, HTRA1 (construct not stated in the …); assay: SPR (Biacore), 25° C.
Experimental: The binding affinities of anti-HTRA1 antibodies to human HTRA1 were measured using a Biacore system (GE Healthcare Life Sciences). Briefly, anti-Fc antibody (Sigma-Aldrich) was immobilized on all four flow cells of a CMS chip using amine coupling reagents (GE Healthcare LifeSciences). Antibodies were captured on flow cells 2, 3, and 4 using flow cell 1 as a reference. […] Kinetic data were collected over time and fit using the simultaneous global fit equation to yield affinity constants (KD values) for each antibody.
as §6

[32] = biological target: T1, HTRA1 (construct not stated in the …); assay: protease inhibition assay, casein substrate (EnzChek); apparent Ki (Ki^app)
Excerpt: as §4
Antibodies identified in HTRA1 binding assays were tested for their ability to inhibit HTRA1 protease activity. The range of antibody concentrations was tested to establish a dose response curve and determine IC₅₀ values.

[33] = biological target: T1, HTRA1 (construct not stated in the …); assay: protease inhibition assay, H2-Opt peptide substrate (FRET); apparent Ki (Ki^app)
[34] = biological target: T1, HTRA1 (construct not stated in the …); assay: cell-based or functional assay; remark: listed apart in the source

T1 sequence (Q92743 23-480 limits assumed): as the sequence (Q92743 23-480) above

Ki [1]: 0.067 nM
amount of HTRA1 protein in PK serum samples after IV dosing of hz24F7.v2 [2]: ~4 fold
amount of HTRA1 protein in PK serum samples after IVT dosing of hz24F7.v2 [2]: ~2 fold
IC50 at baseline [3]: 0.066 nM
IC50, Casein Assay [4]: 0.29 nM
IC50, H2-Opt Assay [4]: 0.12 nM
Kd [5]: 0.167 nM
koff [5]: 0.000502 s⁻¹
kon [5]: 3.01e+06 M⁻¹ s⁻¹
Kd [6]: 0.213 nM
koff [6]: 0.000416 s⁻¹
kon [6]: 1.95e+06 M⁻¹ s⁻¹
Kd [7]: < 0.1 nM
Kd [8]: 0.144 nM
koff [8]: 0.000388 s⁻¹
kon [8]: 2.68e+06 M⁻¹ s⁻¹
Kd [9]: < 0.1 nM
kon [10]: ≥ 3.9e+06 M⁻¹ s⁻¹
koff [11]: 5.6e-05 s⁻¹
Kd [12]: 0.058 nM
koff [12]: 4.2e-05 s⁻¹
kon [12]: 710000 M⁻¹ s⁻¹
Kd [13]: 0.178 nM
koff [13]: 0.000374 s⁻¹
kon [13]: 2.1e+06 M⁻¹ s⁻¹
IC50 (read off the curve), HTRA1 enzymatic assay, Hz24F7.v2 standard (dark squares) [14]: ~0.1 nM
Ki [15]: 0.086 nM
kon [16]: 1.1e+07 M⁻¹ s⁻¹
Kd [17]: 0.0176 nM
koff [17]: 0.000225 s⁻¹
kon [17]: 1.28e+07 M⁻¹ s⁻¹
IC50, enzyme assay; hz24F7.v2 reference in the S91Y column [18]: 0.0645 nM
IC50, enzyme assay; hz24F7.v2 reference in the S92T column [18]: 0.0645 nM
koff [19]: 0.00017 s⁻¹
Kd [20]: 0.093 nM
koff [20]: 0.00014 s⁻¹
kon [20]: 1.5e+06 M⁻¹ s⁻¹
B1: antibody hz24F7.v2 (antibody, human IgG1, kappa, N297G, V domains shown)
VH: QVQLVQSGAEVKKPGASVKVSCKASGYTFTDYEMHWVRQAPGQRLEWMGAIDPETGGTAYNQKFKGRVTITADKSASTAYMELSSLRSEDTAVYYCTREGYSYEGGGYYFDYWGQGTLVTVSS
VL: DIQMTQSPSSLSASVGDRVTITCSVSSSVSYMYWYQQKPGKAPKLLIYDTSNLASGVPSRFSGSGSGTDFTFTISSLQPEDIATYYCQQWSSYPTFGQGTKLEIKR
notes: also called humanized variant of 24F7

Ki [1]: 0.076 nM
IC50 of inhibition of protease activity, EnzChek protease assay with C32 conditioned media [21]: 0.118 nM
IC50 of inhibition of HTRA1 protease activity, H2-Opt peptide as substrate [22]: 0.164 nM
IC50 of inhibition of HTRA1 protease activity, casein as substrate [22]: 0.145 nM
IC50, Casein Assay [4]: 0.35 nM
IC50, H2-Opt Assay [4]: 0.17 nM
Kd [23]: 0.012 nM
koff [23]: 8.5e-05 s⁻¹
kon [23]: 7.4e+06 M⁻¹ s⁻¹
IC50 (read off the curve), HTRA1 protease assay, casein substrate 0.05 ug/ml (inverted triangles) [24]: ~0.2 nM
IC50 (read off the curve), HTRA1 protease assay, casein substrate 0.1 ug/ml (triangles) [24]: ~0.2 nM
IC50 (read off the curve), HTRA1 protease assay, casein substrate 0.2 ug/ml (circles) [24]: ~0.2 nM
IC50 (read off the curve), HTRA1 protease assay, casein substrate 0.3 ug/ml (squares) [24]: ~0.2 nM
binding result [25]: no binding
binding result [26]: binds
binding result [27]: binds
binding result [28]: no binding
binding result [29]: no binding
Kd [30]: 0.021 nM
koff [30]: 8.2e-05 s⁻¹
kon [30]: 4e+06 M⁻¹ s⁻¹
Kd [31]: 0.03 nM
koff [31]: 5e-05 s⁻¹
kon [31]: 1.6e+06 M⁻¹ s⁻¹
Ki [32]: 0.054 nM
Ki [15]: 0.099 nM
Ki [33]: 0.118 nM
IC50, Protease Assay-Casein substrate [34]: 0.15 nM
IC50, Protease Assay-H2-Opt peptide [34]: 0.12 nM
Kd [20]: 0.047 nM
koff [20]: 8.6e-05 s⁻¹
kon [20]: 1.8e+06 M⁻¹ s⁻¹
B2: antibody 24F7 (antibody, V domains shown)
VH: QVQLQQSGAELVRPGASVKLSCKASGYTFTDYEMHWVKQTPVHGLEWIGAIDPETGGTAYNQKFKGKATLTADKSSSTAYMELRSLTSEDSAVYYCTREGYSYDGGGYYFDYWGQGTTLTVSS
VL: QIVLTQSPAIMSASPGEKVTMTCSVSSSVSYMYWYQQKPGSSPRLLIYDTSNLASGVPVRFSGSGSGTSYSLTISRMEAEDAATYYCQQWSSYPTFGGGTKLEIK
notes: Mouse hybridoma monoclonal antibody; also called parental 24F7 antibody
